Measurements published in patent US20250101111A1.

Legend:
[1] = target: human FcγRIIIb-NA1 (human) (UniProt O75015); experiment: SPR (IBIS MX96), FcγR captured on sensor, full-length IgG1 titrated, pH 7.4, equilibrium 1:1 fit
[2] = target: human FcγRIIa-131H (human) (UniProt P12318); experiment: as above
[3] = target: human FcγRIIa-131R (human) (UniProt P12318); experiment: as above
human FcγRIIb (human) [4] = target: human FcγRIIb (human) (UniProt P31994); experiment: as above
human FcγRIa (human) [5] = target: human FcγRIa (human) (UniProt P12314); experiment: as above
[6] = target: human FcγRIIIa-158V (human) (UniProt P08637); experiment: SPR (IBIS MX96), FcγR captured on sensor, full-length IgG1 titrated, pH 6.0, equilibrium 1:1 fit
[7] = target: human FcγRIIIb-NA1 (human) (UniProt O75015); experiment: as above
[8] = target: human FcγRIIa-131H (human) (UniProt P12318); experiment: as above
[9] = target: human FcγRIIa-131R (human) (UniProt P12318); experiment: as above
human FcγRIIb (human) [10] = target: human FcγRIIb (human) (UniProt P31994); experiment: as above
human FcγRIa (human) [11] = target: human FcγRIa (human) (UniProt P12314); experiment: as above
[12] = target: human FcγRIIIa-158F (human) (UniProt P08637); experiment: SPR (IBIS MX96), FcγR captured on sensor, full-length IgG1 titrated, pH 7.4, equilibrium 1:1 fit
[13] = target: human FcγRIIIa-158V (human) (UniProt P08637); experiment: as above
[14] = target: human FcγRIIIb-NA2 (human) (UniProt O75015); experiment: as above
[15] = target: human FcγRIIIa-158F (human) (UniProt P08637); experiment: SPR (IBIS MX96), FcγR captured on sensor, full-length IgG1 titrated, pH 6.0, equilibrium 1:1 fit
[16] = target: human FcγRIIIb-NA2 (human) (UniProt O75015); experiment: as above

Sequence of human FcγRIIIa-158V (human) (P08637 17-208 F176V limits assumed): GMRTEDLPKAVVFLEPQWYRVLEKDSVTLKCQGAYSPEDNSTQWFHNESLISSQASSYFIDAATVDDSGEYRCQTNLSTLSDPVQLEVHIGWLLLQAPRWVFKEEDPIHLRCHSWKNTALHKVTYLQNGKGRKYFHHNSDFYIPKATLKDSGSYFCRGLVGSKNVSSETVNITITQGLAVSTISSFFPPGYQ
Sequence of human FcγRIIIa-158F (human) (P08637 17-208 limits assumed): as the sequence (P08637 17-208 F176V limits assumed) above, with V160F counted along it
Sequence of human FcγRIIIb-NA1 (human) (O75015 other isoform, or with tags, fused parts or gaps limits assumed): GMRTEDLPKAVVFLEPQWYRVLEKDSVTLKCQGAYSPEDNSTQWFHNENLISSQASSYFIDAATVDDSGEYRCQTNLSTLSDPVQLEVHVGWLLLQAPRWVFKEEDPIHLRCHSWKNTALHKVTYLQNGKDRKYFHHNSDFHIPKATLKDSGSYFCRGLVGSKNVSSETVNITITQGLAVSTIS
Sequence of human FcγRIIb (human) (P31994 43-217 limits assumed): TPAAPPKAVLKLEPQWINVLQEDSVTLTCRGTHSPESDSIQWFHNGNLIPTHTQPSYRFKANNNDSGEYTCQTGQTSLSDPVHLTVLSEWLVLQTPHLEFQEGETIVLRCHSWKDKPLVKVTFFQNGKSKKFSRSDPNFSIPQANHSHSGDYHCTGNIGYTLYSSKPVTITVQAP
Sequence of human FcγRIIa-131R (human) (P12318 34-218 H167R limits assumed): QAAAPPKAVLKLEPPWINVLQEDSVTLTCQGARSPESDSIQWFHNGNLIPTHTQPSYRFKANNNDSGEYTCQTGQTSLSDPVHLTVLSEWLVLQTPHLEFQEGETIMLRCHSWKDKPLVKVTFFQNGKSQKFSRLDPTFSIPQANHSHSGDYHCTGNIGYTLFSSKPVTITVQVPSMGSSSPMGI
Sequence of human FcγRIa (human) (P12314 16-288 limits assumed): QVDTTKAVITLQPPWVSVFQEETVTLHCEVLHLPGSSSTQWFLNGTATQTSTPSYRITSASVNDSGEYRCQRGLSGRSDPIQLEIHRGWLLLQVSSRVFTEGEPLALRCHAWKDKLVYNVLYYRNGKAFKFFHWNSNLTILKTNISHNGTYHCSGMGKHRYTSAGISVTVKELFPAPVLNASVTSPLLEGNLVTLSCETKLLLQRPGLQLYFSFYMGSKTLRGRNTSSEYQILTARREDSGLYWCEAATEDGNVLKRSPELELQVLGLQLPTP
Sequence of human FcγRIIa-131H (human) (P12318 34-218 limits assumed): as the sequence (P12318 34-218 H167R limits assumed) above, with R134H counted along it
Sequence of human FcγRIIIb-NA2 (human) (O75015 17-200 N65S limits assumed): as the sequence (O75015 other isoform, or with tags, fused parts or gaps limits assumed) above, with R20S, N49S, D66N, V90I counted along it

Substance	Kd [1] [nM]	Kd [2] [nM]	Kd [3] [nM]	Kd (human FcγRIIb (human) [4]) [nM]	Kd (human FcγRIa (human) [5]) [nM]	Kd [6] [nM]	Kd [7] [nM]	Kd [8] [nM]	Kd [9] [nM]	Kd (human FcγRIIb (human) [10]) [nM]	Kd (human FcγRIa (human) [11]) [nM]	Kd [12] [nM]	Kd [13] [nM]	Kd [14] [nM]	Kd [15] [nM]	Kd [16] [nM]
IgG1-G236A (antibody)	> 2000	126	241	> 2000	13.2	491	> 2000	141	358	> 2000	63.3					
IgG1-WT (antibody)	> 2000	668	953	> 2000	7.1	337	> 2000	455	920	> 2000	27	> 2000	382	> 2000	894	> 2000
IgG1-WT-afuc (antibody)	617	1000	1010	> 2000	32.9	17.8	> 2000	1020	1990	> 2000	33.3	80.7	16.6	552	102	625
IgG1-ΔG236 (antibody)					> 2000						> 2000					
